Laboratory results from publication PMC4930482.

B1: RNF26, wild type (coIP of Figures 5A and 5B) [not stated] / EPS15 (endogenous) [human (endogenous in a human melanoma cell line and in HEK293T)] (parent)
chain 1: MEAVYLVVNGLGLVLDVLTLVLDLNFLLVSSLLASLAWLLAFVYNLPHTVLTSLLHLGRGVLLSLLALIEAVVRFTCGGLQALCTLLYSCCSGLESLKLLGHLASHGALRSREILHRGVLNVVSSGHALLRQACDICAIAMSLVAYVINSLVNICLIGTQNLFSLVLALWDAVTGPLWRMTDVVAAFLAHISSSAVAMAILLWTPCQLALELLASAARLLASFVLVNLTGLVLLACVLAVTVTVLHPDFTLRLATQALSQLHARPSYHRLREDVMRLSRLALGSEAWRRVWSRSLQLASWPNRGGAPGAPQGDPMRVFSVRTRRQDTLPEAGRRSEAEEEEARTIRVTPVRGRERLNEEEPPGGQDPWKLLKEQEERKKCVICQDQSKTVLLLPCRHLCLCQACTEILMRHPVYHRNCPLCRRGILQTLNVYL
chain 2: MAAAAQLSLTQLSSGNPVYEKYYRQVDTGNTGRVLASDAAAFLKKSGLPDLILGKIWDLADTDGKGILNKQEFFVALRLVACAQNGLEVSLSSLNLAVPPPRFHDTSSPLLISGTSAAELPWAVKPEDKAKYDAIFDSLSPVNGFLSGDKVKPVLLNSKLPVDILGRVWELSDIDHDGMLDRDEFAVAMFLVYCALEKEPVPMSLPPALVPPSKRKTWVVSPAEKAKYDEIFLKTDKDMDGFVSGLEVREIFLKTGLPSTLLAHIWSLCDTKDCGKLSKDQFALAFHLISQKLIKGIDPPHVLTPEMIPPSDRASLQKNIIGSSPVADFSAIKELDTLNNEIVDLQREKNNVEQDLKEKEDTIKQRTSEVQDLQDEVQRENTNLQKLQAQKQQVQELLDELDEQKAQLEEQLKEVRKKCAEEAQLISSLKAELTSQESQISTYEEELAKAREELSRLQQETAELEESVESGKAQLEPLQQHLQDSQQEISSMQMKLMEMKDLENHNSQLNWCSSPHSILVNGATDYCSLSTSSSETANLNEHVEGQSNLESEPIHQESPARSSPELLPSGVTDENEVTTAVTEKVCSELDNNRHSKEEDPFNVDSSSLTGPVADTNLDFFQSDPFVGSDPFKDDPFGKIDPFGGDPFKGSDPFASDCFFRQSTDPFATSSTDPFSAANNSSITSVETLKHNDPFAPGGTVVAASDSATDPFASVFGNESFGGGFADFSTLSKVNNEDPFRSATSSSVSNVVITKNVFEETSVKSEDEPPALPPKIGTPTRPCPLPPGKRSINKLDSPDPFKLNDPFQPFPGNDSPKEKDPEIFCDPFTSATTTTNKEADPSNFANFSAYPSEEDMIEWAKRESEREEEQRLARLNQQEQEDLELAIALSKSEISEA
B2: RNF26, wild type (coIP of Figures 5A and 5B) [not stated] / TOLLIP (endogenous) [human (endogenous in a human melanoma cell line and in HEK293T)] (parent)
chain 1: B1 chain 1
chain 2: not shown
B3: RNF26, wild type (coIP of Figures 5A and 5B) [not stated] / USP15 (endogenous) [human (endogenous in a human melanoma cell line and in HEK293T)] (parent)
chain 1: B1 chain 1
chain 2: MAEGGAADLDTQRSDIATLLKTSLRKGDTWYLVDSRWFKQWKKYVGFDSWDKYQMGDQNVYPGPIDNSGLLKDGDAQSLKEHLIDELDYILLPTEGWNKLVSWYTLMEGQEPIARKVVEQGMFVKHCKVEVYLTELKLCENGNMNNVVTRRFSKADTIDTIEKEIRKIFSIPDEKETRLWNKYMSNTFEPLNKPDSTIQDAGLYQGQVLVIEQKNEDGTWPRGPSTPKSPGASNFSTLPKISPSSLSNNYNNMNNRNVKNSNYCLPSYTAYKNYDYSEPGRNNEQPGLCGLSNLGNTCFMNSAIQCLSNTPPLTEYFLNDKYQEELNFDNPLGMRGEIAKSYAELIKQMWSGKFSYVTPRAFKTQVGRFAPQFSGYQQQDCQELLAFLLDGLHEDLNRIRKKPYIQLKDADGRPDKVVAEEAWENHLKRNDSIIVDIFHGLFKSTLVCPECAKISVTFDPFCYLTLPLPMKKERTLEVYLVRMDPLTKPMQYKVVVPKIGNILDLCTALSALSGIPADKMIVTDIYNHRFHRIFAMDENLSSIMERDDIYVFEININRTEDTEHVIIPVCLREKFRHSSYTHHTGSSLFGQPFLMAVPRNNTEDKLYNLLLLRMCRYVKISTETEETEGSLHCCKDQNINGNGPNGIHEEGSPSEMETDEPDDESSQDQELPSENENSQSEDSVGGDNDSENGLCTEDTCKGQLTGHKKRLFTFQFNNLGNTDINYIKDDTRHIRFDDRQLRLDERSFLALDWDPDLKKRYFDENAAEDFEKHESVEYKPPKKPFVKLKDCIELFTTKEKLGAEDPWYCPNCKEHQQATKKLDLWSLPPVLVVHLKRFSYSRYMRDKLDTLVDFPINDLDMSEFLINPNAGPCRYNLIAVSNHYGGMGGGHYTAFAKNKDDGKWYYFDDSSVSTASEDQIVSKAAYVLFYQRQDTFSGTGFFPLDRETKGASAATGIPLESDEDSNDNDNDIENENCMHTN

Variants of: B1
Assay: coIP
Conditions: with EPS15 (endogenous) [human (endogenous in a human melanoma cell line and in HEK293T)]; HEK293T cells; n = 3; read off a plot

Variant	percent of parent [% Co-IP]
chain 1 I382R	22

Variants of: B2
Assay: coIP
Design: reference not given here
Conditions: with TOLLIP (endogenous) [human (endogenous in a human melanoma cell line and in HEK293T)]; HEK293T cells; n = 3; read off a plot

Variant	percent of parent [% Co-IP]
chain 1 I382R	12

Variants of: B3
Assay: coIP
Conditions: with USP15 (endogenous) [human (endogenous in a human melanoma cell line and in HEK293T)]; HEK293T cells; n = 3; read off a plot

Variant	percent of parent [% Co-IP]
chain 1 I382R	27
